Measured values taken from patent US20230074436A1 (DENALI THERAPEUTICS, published 2023).

Target: human alpha-synuclein monomer (human, UniProt P37840 1-140)
Assay: SPR (Biacore 8K), IgG captured on anti-human Fc, aSyn monomer injected;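 also: aSyn injected as a dilution series, signal corrected against a reference cell holding an irrelevant IgG, Kd from one-to-one Langmuir kinetic fitting of kon and koff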

| Binder | Kd [nM] |
| --- | --- |
| H3_2_LC2 (antibody, V domains shown) VH: EVQLVESGGGLVQPGGSLRLSCAASGFTFSNAAMYWVRQAPGKGLELVSRIRTKPNNYATYHADSVKGRFTISRDNSKNTLYLQMNSLRAEDTAVYYCTANMAKGDYWGQGTLVTVSS VL: DIQMTQSPSSLSASVGDRVTITCKASQNINKNLDWYQQKPGKAPKPLIYSTNNLQTGVPSRFSGSGSGTDFTLTISSLQPEDFATYYCYQYKSAWTFGQGTKVEIK | 4.92 |
| H3_4_LC2 (antibody, V domains shown) VH: EVQLVESGGGLVQPGGSLRLSCAASGFTFSNAAMYWVRQAPGKGLELVSRIRTKPNNYATYHADSVKGRFTISRDNSKNTLYLQMNSLRAEDTAVYYCSADFAKGDYWGQGTLVTVSS VL: DIQMTQSPSSLSASVGDRVTITCKASQNINKNLDWYQQKPGKAPKPLIYSTNNLQTGVPSRFSGSGSGTDFTLTISSLQPEDFATYYCYQYKSAWTFGQGTKVEIK | 4.64 |
| H2_3_LC2 (antibody, V domains shown) VH: EVQLVESGGGLVQPGGSLRLSCAASGFTFSNAAMYWVRQAPGKGLELVSRIRTERNNYATYHADSVKGRFTISRDNSKNTLYLQMNSLRAEDTAVYYCTADMATGDYWGQGTLVTVSS VL: DIQMTQSPSSLSASVGDRVTITCKASQNINKNLDWYQQKPGKAPKPLIYSTNNLQTGVPSRFSGSGSGTDFTLTISSLQPEDFATYYCYQYKSAWTFGQGTKVEIK | 4.76 |
| H2_6_LC2 (antibody, V domains shown) VH: EVQLVESGGGLVQPGGSLRLSCAASGFTFSNAAMYWVRQAPGKGLELVSRIRTKPKNYATYHADSVKGRFTISRDNSKNTLYLQMNSLRAEDTAVYYCTADMATGDYWGQGTLVTVSS VL: DIQMTQSPSSLSASVGDRVTITCKASQNINKNLDWYQQKPGKAPKPLIYSTNNLQTGVPSRFSGSGSGTDFTLTISSLQPEDFATYYCYQYKSAWTFGQGTKVEIK | 7.75 |
| H2_2_LC2 (antibody, V domains shown) VH: EVQLVESGGGLVQPGGSLRLSCAASGFTFSNAAMYWVRQAPGKGLELVSRIRTQRNNYATYHADSVKGRFTISRDNSKNTLYLQMNSLRAEDTAVYYCTADMATGDYWGQGTLVTVSS VL: DIQMTQSPSSLSASVGDRVTITCKASQNINKNLDWYQQKPGKAPKPLIYSTNNLQTGVPSRFSGSGSGTDFTLTISSLQPEDFATYYCYQYKSAWTFGQGTKVEIK | 5.93 |
| H2_1_LC2 (antibody, V domains shown) VH: EVQLVESGGGLVQPGGSLRLSCAASGFTFSNAAMYWVRQAPGKGLELVSRIRTKPNNFATYHADSVKGRFTISRDNSKNTLYLQMNSLRAEDTAVYYCTADMATGDYWGQGTLVTVSS VL: DIQMTQSPSSLSASVGDRVTITCKASQNINKNLDWYQQKPGKAPKPLIYSTNNLQTGVPSRFSGSGSGTDFTLTISSLQPEDFATYYCYQYKSAWTFGQGTKVEIK | 6.18 |
| H3_3_LC2 (antibody, V domains shown) VH: EVQLVESGGGLVQPGGSLRLSCAASGFTFSNAAMYWVRQAPGKGLELVSRIRTKPNNYATYHADSVKGRFTISRDNSKNTLYLQMNSLRAEDTAVYYCAAAMARGDYWGQGTLVTVSS VL: DIQMTQSPSSLSASVGDRVTITCKASQNINKNLDWYQQKPGKAPKPLIYSTNNLQTGVPSRFSGSGSGTDFTLTISSLQPEDFATYYCYQYKSAWTFGQGTKVEIK | 5.3 |
| H2_4_LC2 (antibody, V domains shown) VH: EVQLVESGGGLVQPGGSLRLSCAASGFTFSNAAMYWVRQAPGKGLELVSRIRTKRNNYATYHADSVKGRFTISRDNSKNTLYLQMNSLRAEDTAVYYCTADMATGDYWGQGTLVTVSS VL: DIQMTQSPSSLSASVGDRVTITCKASQNINKNLDWYQQKPGKAPKPLIYSTNNLQTGVPSRFSGSGSGTDFTLTISSLQPEDFATYYCYQYKSAWTFGQGTKVEIK | 8.35 |
| H2_5_LC2 (antibody, V domains shown) VH: EVQLVESGGGLVQPGGSLRLSCAASGFTFSNAAMYWVRQAPGKGLELVSRIRTEPNNYATYHADSVKGRFTISRDNSKNTLYLQMNSLRAEDTAVYYCTADMATGDYWGQGTLVTVSS VL: DIQMTQSPSSLSASVGDRVTITCKASQNINKNLDWYQQKPGKAPKPLIYSTNNLQTGVPSRFSGSGSGTDFTLTISSLQPEDFATYYCYQYKSAWTFGQGTKVEIK | 5.5 |
| H3_1_LC2 (antibody, V domains shown) VH: EVQLVESGGGLVQPGGSLRLSCAASGFTFSNAAMYWVRQAPGKGLELVSRIRTKPNNYATYHADSVKGRFTISRDNSKNTLYLQMNSLRAEDTAVYYCTANMATGDYWGQGTLVTVSS VL: DIQMTQSPSSLSASVGDRVTITCKASQNINKNLDWYQQKPGKAPKPLIYSTNNLQTGVPSRFSGSGSGTDFTLTISSLQPEDFATYYCYQYKSAWTFGQGTKVEIK | 4.79 |

More lines, now with the values ahead:

| Kd [nM] | Binder |
| --- | --- |
| 3.46 | H1_1_LC2 (antibody, V domains shown) VH: EVQLVESGGGLVQPGGSLRLSCAASGFTFSKAAMYWVRQAPGKGLELVSRIRTKPNNYATYHADSVKGRFTISRDNSKNTLYLQMNSLRAEDTAVYYCTADMATGDYWGQGTLVTVSS VL: DIQMTQSPSSLSASVGDRVTITCKASQNINKNLDWYQQKPGKAPKPLIYSTNNLQTGVPSRFSGSGSGTDFTLTISSLQPEDFATYYCYQYKSAWTFGQGTKVEIK |
| 3.55 | H1_4_LC2 (antibody, V domains shown) VH: EVQLVESGGGLVQPGGSLRLSCAASGFTFNKAAMYWVRQAPGKGLELVSRIRTKPNNYATYHADSVKGRFTISRDNSKNTLYLQMNSLRAEDTAVYYCTADMATGDYWGQGTLVTVSS VL: DIQMTQSPSSLSASVGDRVTITCKASQNINKNLDWYQQKPGKAPKPLIYSTNNLQTGVPSRFSGSGSGTDFTLTISSLQPEDFATYYCYQYKSAWTFGQGTKVEIK |
| 4.04 | H1_3_LC2 (antibody, V domains shown) VH: EVQLVESGGGLVQPGGSLRLSCAASGFTFSRAAMYWVRQAPGKGLELVSRIRTKPNNYATYHADSVKGRFTISRDNSKNTLYLQMNSLRAEDTAVYYCTADMATGDYWGQGTLVTVSS VL: DIQMTQSPSSLSASVGDRVTITCKASQNINKNLDWYQQKPGKAPKPLIYSTNNLQTGVPSRFSGSGSGTDFTLTISSLQPEDFATYYCYQYKSAWTFGQGTKVEIK |
| 3.53 | H1_2_LC2 (antibody, V domains shown) VH: EVQLVESGGGLVQPGGSLRLSCAASGFRFSKAAMYWVRQAPGKGLELVSRIRTKPNNYATYHADSVKGRFTISRDNSKNTLYLQMNSLRAEDTAVYYCTADMATGDYWGQGTLVTVSS VL: DIQMTQSPSSLSASVGDRVTITCKASQNINKNLDWYQQKPGKAPKPLIYSTNNLQTGVPSRFSGSGSGTDFTLTISSLQPEDFATYYCYQYKSAWTFGQGTKVEIK |
| 3.91 | H1_6_LC2 (antibody, V domains shown) VH: EVQLVESGGGLVQPGGSLRLSCAASGFNFSKAAMYWVRQAPGKGLELVSRIRTKPNNYATYHADSVKGRFTISRDNSKNTLYLQMNSLRAEDTAVYYCTADMATGDYWGQGTLVTVSS VL: DIQMTQSPSSLSASVGDRVTITCKASQNINKNLDWYQQKPGKAPKPLIYSTNNLQTGVPSRFSGSGSGTDFTLTISSLQPEDFATYYCYQYKSAWTFGQGTKVEIK |
| 4.61 | H1_5_LC2 (antibody, V domains shown) VH: EVQLVESGGGLVQPGGSLRLSCAASGFKFSKAAMYWVRQAPGKGLELVSRIRTKPNNYATYHADSVKGRFTISRDNSKNTLYLQMNSLRAEDTAVYYCTADMATGDYWGQGTLVTVSS VL: DIQMTQSPSSLSASVGDRVTITCKASQNINKNLDWYQQKPGKAPKPLIYSTNNLQTGVPSRFSGSGSGTDFTLTISSLQPEDFATYYCYQYKSAWTFGQGTKVEIK |
